Experimental findings from US12339286B2, “Metal-reducing enzymatic tag for optical and electron microscopy” (Colorado State University Research Foundation, priority 2018, dated 2025) are described below.

The target in assay [1] is glutathione reductase-like metalloid reductase (GRLMR) (Pseudomonas moraviensis stanleyae). Briefly: negative binding assay: phage (input 10^10 pfu) on wells coated with unreacted GRLMR, acid-eluted phage titered on E. coli.
Assay [2] deals with T1, Pseudomonas moraviensis stanleyea GRLMR-SeBP (glutathione reductase-like metalloid reductase, GRLMR, with the selenium nanoparticle binding peptide SeBP/SeBP1, (Pseudomonas moraviensis, UniProt A0A2A2PF31, INS452LTPHKHHKHLHA)).
T1 sequence (A0A2A2PF31 1-452 INS452LTPHKHHKHLHA): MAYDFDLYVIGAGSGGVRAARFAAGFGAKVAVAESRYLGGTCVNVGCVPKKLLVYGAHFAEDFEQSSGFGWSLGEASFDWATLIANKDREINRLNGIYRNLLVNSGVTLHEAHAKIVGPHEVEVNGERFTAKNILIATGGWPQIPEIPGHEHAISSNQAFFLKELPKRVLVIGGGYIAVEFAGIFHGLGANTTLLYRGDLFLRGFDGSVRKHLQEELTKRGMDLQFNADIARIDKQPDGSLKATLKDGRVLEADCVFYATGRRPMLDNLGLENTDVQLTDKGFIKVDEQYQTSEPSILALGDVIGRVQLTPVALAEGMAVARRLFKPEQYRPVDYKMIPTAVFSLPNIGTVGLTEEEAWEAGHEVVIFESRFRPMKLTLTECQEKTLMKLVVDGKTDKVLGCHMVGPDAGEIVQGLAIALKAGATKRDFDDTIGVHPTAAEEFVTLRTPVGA
Briefly: KM and kcat study: NADPH consumption at 340 nm, V0 vs substrate concentration. Format: biochemical. The settings on record: substrate HNaSeO3; PBS, pH 7.4; 13 μg of enzyme; 200 μM NADPH; 0.05 mM-2 mM substrate. The text has this:
(§1) Because of the dramatic difference in SeBP size, morphology and aggregation state that depends on SeBP concatenation to GRLMR, whether this concatenation also alters the kinetic properties of the enzyme was investigated. To explore this possibility, NADPH concentrations were monitored spectroscopically during GRLMR enzymatic reactions to establish fundamental enzymatic kinetics in the presence and absence of the peptide. FIG. 4 depicts the plots of V0s attained by the GRLMR with and without SeBP over a range of substrate concentrations.
(§2) Initial velocities (V0) of the GRLMR-SeBP were performed in various concentrations of HNaSeO3 or GSSG while monitoring 340 nm correlating to NADPH absorbance. The reactions were run in PBS, pH 7.4 and with 13 μg of enzyme with substrate SeO3^2− (1.5 μg of enzyme with substrate GSSG) and 200 μM of NADPH with 0.05 mM-2 mM of substrate. Enzymatic V0s were plotted against substrate concentration in OriginPro from which KM and kcat could then be calculated.

Assay [3] has as its target Pseudomonas moraviensis stanleyea GRLMR (glutathione reductase-like metalloid reductase), without SeBP (Pseudomonas moraviensis, UniProt A0A2A2PF31). The description is as above. The settings on record: substrate HNaSeO3; PBS, pH 7.4; 13 μg of enzyme; 200 μM NADPH; 0.05 mM-2 mM substrate. Format: biochemical.
Description: as §1, §2

Where “and” joins values, the source holds several entries; their conditions need not be identical. Identical values can stand only once. Ends that are not written are not given here.

Take “Wild Type M13 phage (no inserted sequence) (from UniProt P69168 19-424)”: in assay [1], the eluted phage titer (pfu) came to 150000 pfu.

As usually defined, the Km is the concentration of substrate that gives half-maximal velocity. One may read the kcat as the maximal rate divided by the concentration of active sites. In the case of `O=[Se]([O-])O.[Na+]` [HNaSeO3], in assay [2], the Km amounted to 217 ± 57 µM; the kcat was 0.67193 ± 0.04143 s⁻¹ and 0.67193 s⁻¹. Further, in assay [3], the Km is 1920 ± 1280 µM; the kcat was 0.38038 ± 0.1473 s⁻¹ and 0.38038 s⁻¹.

B1: SeBP5 (…) displayed on M13 phage (peptide, not shown: large carriers)
peptide: THYNPLRINPIT-{M13 pIII}
modifications: also: displayed on M13 phage pIII, linker not given here
For B1, in assay [1], the eluted phage titer (pfu) was 680000 pfu.

B2: SeBP2 (…) displayed on M13 phage (peptide, not shown: large carriers)
peptide: GPHHMHHHRTHH-{M13 pIII}
modifications: also: displayed on M13 phage pIII, linker not given here
As to B2, the eluted phage titer (pfu) in assay [1] was found to be 2.1e+09 pfu.

B3: SeBP4 (…) displayed on M13 phage (peptide, not shown: large carriers)
peptide: GWHSPHAHWRVK-{M13 pIII}
modifications: also: displayed on M13 phage pIII, linker not given here
Molecule B3 displayed an eluted phage titer (pfu) in assay [1] of 330000 pfu.

B4: SeBP3 (…) displayed on M13 phage (peptide, not shown: large carriers)
peptide: WPRHHWHTNYMR-{M13 pIII}
modifications: also: displayed on M13 phage pIII, linker not given here
In assay [1], B4 showed an eluted phage titer (pfu) of 3.9e+08 pfu.
